Laboratory results reported in patent publication US20150315275A1 (AstraZeneca / MedImmune, published 2015).
Several values for one entry are separate records, joined by “and”; a condition that tells them apart may be missing. Identical values can stand only once.

T1: human B7-H4 expressed on cells (human, UniProt Q7Z7D3 25-282)
T1 construct: the cell line is named under assay or readout; also called full length human B7-H4 on HEK293 cells; 293T.hB7-H4
T1 sequence: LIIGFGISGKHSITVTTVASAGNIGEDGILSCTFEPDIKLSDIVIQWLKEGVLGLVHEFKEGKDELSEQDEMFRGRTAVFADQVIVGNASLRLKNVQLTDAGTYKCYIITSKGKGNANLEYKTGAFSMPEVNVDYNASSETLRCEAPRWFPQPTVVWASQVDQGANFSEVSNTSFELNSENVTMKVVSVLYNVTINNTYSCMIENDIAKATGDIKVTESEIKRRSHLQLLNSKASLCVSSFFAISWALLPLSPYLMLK

T2: B7-H4ECD his-tagged protein (Sinobiologics) (human, UniProt Q7Z7D3 25-259)
T2 construct: Bought protein; Result paragraph calls the target human B7-H4; also called B7-H4 extracellular domain; not shown: his tag
T2 sequence: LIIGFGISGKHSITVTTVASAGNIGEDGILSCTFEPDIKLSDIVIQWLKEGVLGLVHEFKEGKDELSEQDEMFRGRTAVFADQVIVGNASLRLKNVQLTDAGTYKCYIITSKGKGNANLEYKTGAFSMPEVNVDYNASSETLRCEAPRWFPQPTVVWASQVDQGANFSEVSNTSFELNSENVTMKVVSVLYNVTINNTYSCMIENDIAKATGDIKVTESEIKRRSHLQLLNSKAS

T3: mouse B7-H4ECD mIgG2a Fc fusion protein (mouse, UniProt Q7TSP5 25-257, limits assumed)
T3 construct: also called mouse B7-H4-mIg fusion protein; Mouse B7-H4-mouse-Ig Fusion Protein; not shown: mouse IgG2a Fc
T3 sequence: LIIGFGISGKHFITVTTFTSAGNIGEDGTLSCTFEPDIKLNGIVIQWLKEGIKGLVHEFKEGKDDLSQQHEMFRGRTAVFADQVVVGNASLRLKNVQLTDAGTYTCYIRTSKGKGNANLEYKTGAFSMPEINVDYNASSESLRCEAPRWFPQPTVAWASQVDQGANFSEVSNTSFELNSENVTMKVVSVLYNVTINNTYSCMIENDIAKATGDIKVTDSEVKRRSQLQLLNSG


Tests used:
B7-H4-Ig fusion protein [1] = biological target: T4, B7-H4-Ig fusion protein (human); assay: competition ELISA on B7-H4-Ig-coated plate, Plate 2; competitor biotinylated mouse 6H3 (5 ng/ml)
T4 construct: also called human B7-H4 Ig
Protocol: (§1) A 12-point, 3-fold dilution series of 14 humanized 6H3 antibody variants was prepared ranging from 100 μg/ml to 0.5 ng/ml. Dilutions were prepared in assay diluent containing biotinylated mouse anti-human B7-H4 6H3 (SEQ ID NOS:3 and 5 for light chain variable region and heavy chain variable region respectively) at 5 ng/ml. Antibodies were allowed to bind to B7-H4-Ig-coated assay plates (200 ng/well) for 1 hour at room temperature and detected with streptavidin HRP.

[2] = biological target: T1, human B7-H4 expressed on cells; assay: saturation binding, flow cytometry on 624mel/B7-H4 cells, biotinylated mAb, azide-treated cells; unit not given
Protocol: A saturation binding experiment was carried out on 624mel/B7-H4 cells using the chimeric 6H3 mAb and humanized variants of 6H3. Briefly, 50,000 cells were pretreated with 0.1% azide on ice for 30 minutes to inhibit B7-H4 internalization then stained for 30 minutes with biotinylated anti-B7-H4 mAbs. The mAbs were diluted in a 12-point, 3-fold dilution series ranging from 200 μg/ml down to 1 ng/ml. Cell were stained with streptavidin PE for 10 minutes, washed, fixed and analyzed by flow cytometry.
FIGS. 35A-35B are binding curves for the raw (FIG. 35A) and background subtracted data (FIG. 35B). […] The subtracted values were used to determine the Kd and Bmax. The antibodies appear to fall into two groups based on Kd values (Table 10).

[3] = biological target: T2, B7-H4ECD his-tagged protein …; assay: ELISA, B7-H4ECD his-tagged protein coated
Protocol: 100 μl 1 μg/ml B7-H4ECD his-tagged protein (Sinobiologics) diluted in PBS was immobilized on flat bottom 96 well plate (Costar 9017) overnight at 4° C. Plates were washed twice with PBS+0.1% PS-20 and blocked with 200 μl/well PBS 10% FBS at RT for 1 hr. 100 μl chimeric 6H3 and 14 selected 6H3 humanized variants diluted in PBS 10% FBS were added to each well and incubated at RT for 1 hr. Plates were washed three times and 100 μl 1 μg/ml anti-human Ig HRP (Sigma) was added to each well and incubated at RT for 1 hr. Plates were washed six times and 100 μl TMB substrate (SurModics) was added to each well for 5-15 mins 100 μl stop solution (0.1M Sulfuric acid) was added to each well. Plates were read at Absorbance 450 nm by PerkinElmer EnVision 2104 Multilabel Reader.

[4] = biological target: T1, human B7-H4 expressed on cells; assay: flow cytometry on HEK293.hB7-H4 transfectants, one-site specific binding fit
Protocol: For each staining, 0.2 million HEK293.hB7-H4 transfectants were resuspended in 100 μl flow cytometry buffer (PBS+2% FBS). A serial dilution of chimeric 6H3 and 14 humanized variants of 0, 0.1 ng, 0.3 ng, 1 ng, 3 ng, 10 ng, 30 ng, 100 ng, 300 ng, 1 μg, 3 μg and 10 μg were added to the cells and incubated at 4° C. for 30 min. Cells were then washed twice with 2 ml flow cytometry buffer, and resuspended in 100 μl flow cytometry buffer. 1 μl anti-hIg PE secondary antibody (Biolegend) was added and incubated with the cells for 15 mins Samples were then washed and resuspended in 100 μl flow cytometry buffer. Flow Cytometry data was acquired using BD Canto (BD Biosciences) in plate format and analyzed by FlowJo software. Staining data (MFI) was then input into Prism 5 software to generate binding curve. Curve-fit using one-site specific binding algorithm calculates individual KD for each variant.

[5] = biological target: T3, mouse B7-H4ECD mIgG2a Fc fusion protein; assay: ELISA, mouse B7-H4ECD mIgG2a Fc fusion coated
Protocol: 100 μg/ml mouse B7-H4ECD mIgG2a Fc fusion protein diluted in PBS was immobilized on flat bottom 96 well plate (Costar 9017) overnight at 4° C. Plates were washed twice with PBS+0.1% PS-20 and blocked with 200 μl/well PBS 10% FBS at RT for 1 hr. 100 μl chimeric 6H3 and 14 selected 6H3 humanized variants diluted in PBS 10% FBS were added to each well and incubated at RT for 1 hr. Plates were washed three times and 100 μl 1 μg/ml anti-human Ig HRP (Sigma) was added to each well and incubated at RT for 1 hr. Plates were washed six times and 100 μl TMB substrate (SurModics) was added to each well for 5-15 mins 100 μl stop solution (0.1M Sulfuric acid) was added to each well. Plates were read at Absorbance 450 nm by PerkinElmer EnVision 2104 Multilabel Reader.

B7-H4-Ig fusion protein [6] = biological target: T4, B7-H4-Ig fusion protein; assay: competition ELISA on B7-H4-Ig-coated plate, Plate 1; competitor biotinylated mouse 6H3 (5 ng/ml)
Protocol: as §1

Row | Binder | EC50 (B7-H4-Ig fusion protein [1]) | Bmax [2] | EC50 [3] [nM] | Bmax(MFI) [4] [MFI] | Kd [4] [nM] | EC50 [5] [nM] | EC50 (B7-H4-Ig fusion protein [6])
1 | humanized 6H3 variant 11 (antibody, V domains shown, also called V11; H2C L2B) VH: EVQLVQSGAEMKKPGASVKVSCKASGYTFTDYYMNWVRQAPGQSLEWIGVINPYNGDTTYNQKFQGRVTVTVDKSATTAYMELSSLRSEDTAVYYCARYPESTYWGQGTLVTVSS VL: DIVMTQTPLSLPVTLGQPASISCRSSQSLVHINGNTYLHWYQQRPGQSPRVLIYKVSNRFSGVPDRFSGSGSGTDFTLKISRVEAEDVGVYFCSQSTHVPLTFGQGTKVEIK | 2.2 µg/mL and 14.7 nM |  | 0.97 | 648 | 6.9 | 0.11 | 
2 | humanized 6H3 variant 13 (antibody, V domains shown, also called V13; H2B L2C) VH: EVQLVQSGAEMKKPGASVKVSCKASGYTFTDYYMNWVRQAPGQSLEWMGVINPYNGDTTYNQKFQGRVTVAVDKSATTAYMELSSLRSEDTAVYYCARYPESTYWGQGTLVTVSS VL: DIVMTQTPLSLPVTLGQPASISCRSSQSLVHINGNTYLHWYLQRPGQSPKVLIYKVSNRFSGVPDRFSGSGSGTDFTLKISRVEAEDVGVYFCSQSTHVPLTFGAGTKVEIK | 2.11 µg/mL and 14.1 nM |  | 0.92 | 648 | 7 | 0.13 | 
3 | humanized 6H3 variant 10 (antibody, V domains shown, also called V10; H2B L2B) VH: EVQLVQSGAEMKKPGASVKVSCKASGYTFTDYYMNWVRQAPGQSLEWMGVINPYNGDTTYNQKFQGRVTVAVDKSATTAYMELSSLRSEDTAVYYCARYPESTYWGQGTLVTVSS VL: DIVMTQTPLSLPVTLGQPASISCRSSQSLVHINGNTYLHWYQQRPGQSPRVLIYKVSNRFSGVPDRFSGSGSGTDFTLKISRVEAEDVGVYFCSQSTHVPLTFGQGTKVEIK | 2.13 µg/mL and 14.2 nM |  | 0.89 | 662 | 5.5 | 0.13 | 

Binders with a lower EC50 [3], results first:

Row | EC50 (B7-H4-Ig fusion protein [1]) | Bmax [2] | EC50 [3] [nM] | Bmax(MFI) [4] [MFI] | Kd [4] [nM] | EC50 [5] [nM] | EC50 (B7-H4-Ig fusion protein [6]) | Binder
4 | 2.69 µg/mL and 17.9 nM | 4610 | 0.75 | 553 | 1.8 | 0.07 |  | humanized 6H3 variant 9 (antibody, V domains shown, also called V9; 6H3 V9) VH: EVQLVQSGAEVKKPGASVKVSCKASGYTFTDYYMNWVRQAPGQGLEWIGIINPYNGDTSYNQKFKGRVTLTVDKSTSTAYMELSSLRSEDTAVYYCARYPESTYWGQGTLVTVSS VL: DIVMTQTPLSLPVTLGQPASISCRSSQSLVHINGNTYLHWYQQRPGQSPRVLIYKVSNRFSGVPDRFSGSGSGTDFTLKISRVEAEDVGVYFCSQSTHVPLTFGQGTKVEIK
5 | 2.49 µg/mL and 16.6 nM | 5580 | 0.68 | 629 | 5.8 | 0.11 |  | humanized 6H3 variant 14 (antibody, V domains shown, also called V14; 6H3 V14) VH: EVQLVQSGAEMKKPGASVKVSCKASGYTFTDYYMNWVRQAPGQSLEWIGVINPYNGDTTYNQKFQGRVTVTVDKSATTAYMELSSLRSEDTAVYYCARYPESTYWGQGTLVTVSS VL: DIVMTQTPLSLPVTLGQPASISCRSSQSLVHINGNTYLHWYLQRPGQSPKVLIYKVSNRFSGVPDRFSGSGSGTDFTLKISRVEAEDVGVYFCSQSTHVPLTFGAGTKVEIK
6 | 2.26 µg/mL and 15.1 nM | 5810 | 0.62 | 316 | 5.8 | 0.09 | 2.44 µg/mL and 16.2 nM | chimeric 6H3 (antibody, V domains shown, Mouse variable regions with constant regions from the human IgG1 heavy chain and human kappa light chain; also called human chimeric 6H3; hc6H3) VH: EVQLQQSGPVLVKPGTSVKMSCKASGYTFTDYYMNWVKQSHGKSLEWIGVINPYNGDTTYNQKFKGKATLTVDKSSSTAYMEVNSLTFEDSAVYYCARYPESTYWGQGTLVTVSA VL: DVVMTQTPLSLPVSLGDQASISCRSSQSLVHINGNTYLHWYLQKPGQSPKVLIYKVSNRFSGVPDRFSGSGSGTDFTLKISRVEAEDLGVYFCSQSTHVPLTFGAGTKLELK
7 | 3 µg/mL and 20 nM | 4580 | 0.78 | 597 | 3.2 | 0.09 |  | humanized 6H3 variant 12 (antibody, V domains shown, also called V12; 6H3 V12) VH: EVQLVQSGAEVKKPGASVKVSCKASGYTFTDYYMNWVRQAPGQGLEWIGIINPYNGDTSYNQKFKGRVTLTVDKSTSTAYMELSSLRSEDTAVYYCARYPESTYWGQGTLVTVSS VL: DIVMTQTPLSLPVTLGQPASISCRSSQSLVHINGNTYLHWYLQRPGQSPKVLIYKVSNRFSGVPDRFSGSGSGTDFTLKISRVEAEDVGVYFCSQSTHVPLTFGAGTKVEIK
